Earlier results as cited in patent US10421954B2, “Hybrid polymers, pharmaceutical compositions and methods of synthesizing the same” (New York University, priority 2013, dated 2019).

Details: literature value (ref. 25) for marketed PTH (1-34) (Forteo)

## CC[C@H](C)[C@H](NC(=O)[C@H](CCC(=O)O)NC(=O)[C@H](CO)NC(=O)[C@@H](NC(=O)[C@@H](N)CO)C(C)C)C(=O)N[C@@H](CCC(N)=O)C(=O)N[C@@H](CC(C)C)C(=O)N[C@@H](CCSC)C(=O)N[C@@H](Cc1cnc[nH]1)C(=O)N[C@@H](CC(N)=O)C(=O)N[C@@H](CC(C)C)C(=O)NCC(=O)N[C@@H](CCCCN)C(=O)N[C@@H](Cc1cnc[nH]1)C(=O)N[C@@H](CC(C)C)C(=O)N[C@@H](CC(N)=O)C(=O)N[C@@H](CO)C(=O)N[C@@H](CCSC)C(=O)N[C@@H](CCC(=O)O)C(=O)N[C@@H](CCCN=C(N)N)C(=O)N[C@H](C(=O)N[C@@H](CCC(=O)O)C(=O)N[C@@H](Cc1c[nH]c2ccccc12)C(=O)N[C@@H](CC(C)C)C(=O)N[C@@H](CCCN=C(N)N)C(=O)N[C@@H](CCCCN)C(=O)N[C@@H](CCCCN)C(=O)N[C@@H](CC(C)C)C(=O)N[C@@H](CCC(N)=O)C(=O)N[C@@H](CC(=O)O)C(=O)N[C@H](C(=O)N[C@@H](Cc1cnc[nH]1)C(=O)N[C@@H](CC(N)=O)C(=O)N[C@@H](Cc1ccccc1)C(=O)O)C(C)C)C(C)C [PTH (1-34), parathyroid hormone 1-34]
  half-life in serum: ~5 min
